From patent publication US8598081B2, “Specific delivery of agrochemicals” (priority 2010, dated 2013)

Assays:
[1] = tested on: gum arabic or potato lectin; assay: Lambda cyhalothrin amount in wells with bound microcapsules, GC/MS-MS; assay type: binding; details: VHH coupled to lambda cyhalothrin microcapsules
Method: An ELISA-like assay setup was used to evaluate the interaction of VHH-coupled microcapsules to antigen-containing surfaces. ELISA plates (Maxisorp (Thermo Scientific Nunc) or high bind half area microplates (Greiner Bio-One)) were coated with gum arabic or potato lectin. Coatings were performed overnight with 100 μg/ml gum arabic or potato lectin in PBS. Control wells included blank wells or wells coated with unrelated antigens. Plates were washed three times with PBS with 0.05%-TWEEN®-20 and blocked with 5% skimmed milk in PBS for 1 to 2 hours. VHH-coupled lambda cyhalothrin-containing or Uvitex-containing microcapsules were diluted to appropriate densities in 1% skimmed milk in PBS with 0.05%-TWEEN®-20. Microcapsules were added to the antigen-coated or control wells and allowed to bind for 1 hour. Unbound microcapsules were removed by washing five times with PBS with 0.05%-TWEEN®-20. The bottoms of ELISA plate wells were analyzed for bound microcapsules on a macrozoom microscope system (Nikon). Microcapsules were counted using Volocity image analysis software (Perkin Elmer). A DAPI filter was used to visualize Uvitex microcapsules. […]
In another experiment, lambda cyhalothrin amounts were also determined analytically. […] The amount of lambda cyhalothrin was determined by GC/MS-MS analysis in comparison with calibration solutions. […]

potato lectin = target: T1, potato lectin (Solanum tuberosum, UniProt Q9S8M0); assay: VHH binding to potato lectin in ELISA; details: Table 2; Blank (no antigen coating); VHH 3 μg/ml
T1 construct: purchased Sigma
T1 sequence (Q9S8M0 whole entry, looked up): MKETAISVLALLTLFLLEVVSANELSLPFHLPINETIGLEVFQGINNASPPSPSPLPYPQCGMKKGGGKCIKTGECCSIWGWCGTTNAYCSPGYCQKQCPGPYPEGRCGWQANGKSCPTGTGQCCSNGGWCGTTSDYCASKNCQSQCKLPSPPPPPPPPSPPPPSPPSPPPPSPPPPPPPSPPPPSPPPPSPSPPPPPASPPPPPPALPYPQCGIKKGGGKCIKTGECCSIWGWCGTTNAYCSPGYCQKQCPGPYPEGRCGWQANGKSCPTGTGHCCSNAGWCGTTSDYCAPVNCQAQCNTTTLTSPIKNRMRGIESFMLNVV
Method: ELISA plates (Maxisorp, Nunc) coated with 100 μl per well 100 μg/ml potato lectin (Sigma) in PBS were coated at 4° C. overnight and coating was continued at room temperature for 1 hour on the next day. Plates were washed three times with PBS/0.05%-TWEEN®-20 and blocked with 5% skimmed milk in PBS for 1 hour. VHH (3 μg/ml) were transferred to the potato lectin-coated plates and VHH antibody fragments were allowed to bind for 1 hour at room temperature. Bound VHH were detected with sequential incubations with monoclonal mouse anti-histidine antibodies (Abd Serotec) and rabbit anti-mouse IgG whole molecule antibodies conjugated with alkaline phosphatase (RaM/AP) (Sigma) in 1% MPBS/0.05%-TWEEN®-20. Unbound antibodies were removed by washing three times with PBS/0.05%-TWEEN®-20 after each antibody incubation. The plates were washed an additional two times with PBS and 100 μl pNPP disodium hexahydrate substrate (Sigma) was added to each well and the absorbance at 405 nm was measured (see Table 2).

B1: VHH 3E6: VHH binding gum arabic, potato lectin and leaf surface; SEQ ID NO:7 by order of the list (protein, listed as Lama glama)
VHH: QVQLQESGGGLVQPGGTLSLSCAASGFNVRWYGMGWFRQAPGKEREGVACISALQETTAYADSVKGRFTLSRDNPKNTLSLQMNNLQPEDTGVYYCATTDCDDSSRMTYTSYLGQGTQVTVSS
modifications: 3E6
- increase of amounts of lambda cyhalothrin in wells coated with antigen compared to blank microcapsules [1]: 23 fold
- increase of amounts of lambda cyhalothrin over blank wells not coated with antigen [1]: 27 fold
- absorbance at 405 nm (potato lectin): 0.067
